The record followed here is patent US20130303439A1, “CHIMERIC PEPTIDES INCLUDING A PENETRATING PEPTIDE AND A BINDING DOMAIN OF PP2A CATALYTIC SUBUNIT TO CASPASE-9” (Institut National de la Sante et de la Recherche Medicale …, priority 2010, published 2013).

The nature of data set [1]: Cell penetration / internalization of peptides. It is filed as cell-based.
For data set [2], the target named is T1, human caspase-9 (Homo sapiens, UniProt P55211).
T1 sequence (P55211 1-416): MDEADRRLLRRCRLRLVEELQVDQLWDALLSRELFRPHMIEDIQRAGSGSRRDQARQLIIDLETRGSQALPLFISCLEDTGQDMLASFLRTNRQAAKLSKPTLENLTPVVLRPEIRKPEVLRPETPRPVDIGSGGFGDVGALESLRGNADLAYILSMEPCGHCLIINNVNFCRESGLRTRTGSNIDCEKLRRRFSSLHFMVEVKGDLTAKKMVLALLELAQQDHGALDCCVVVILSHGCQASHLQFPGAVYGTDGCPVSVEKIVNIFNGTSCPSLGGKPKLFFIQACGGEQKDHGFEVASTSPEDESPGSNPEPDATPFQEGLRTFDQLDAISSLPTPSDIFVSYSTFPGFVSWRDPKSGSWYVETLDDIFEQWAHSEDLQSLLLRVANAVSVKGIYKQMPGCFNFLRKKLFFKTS
Description: Caspase-9-binding assay on cellulose-bound peptides containing human PP2Ac sequences. As to conditions: dodecapeptides bound onto cellulose membrane. As to the method:
Overlapping dodecapeptides covering the whole human PP2Ac sequence were prepared by atomated spot synthesis (Abimed, Langerfield, Germany) onto an amino-derived cellulose membrane, as described (Frank and Overwin, 1996 Meth. Mol. Biol. 66, 149-169; Gausepohl et al., 1992 Pept Res, 5, 315-320). The membrane was saturated using 3% BSA and 3% non-fat dry milk, incubated with purified human caspase-9 and after several washing steps, incubates with anti-caspase-9 antibody, followed by PO-conjugated secondary antibody. Positive spots were visualized using the ECL system.
To identify peptides containing PP2Ac sequences able to binding to caspase-9, a series of 150 overlapping dodecapeptides (shift of 2 amino acids) from human PP2Ac (sequence deduced from NCBI, accession number NP_00270601) were bound onto a cellulose membrane and incubated with purified caspase-9.

In data set [3] the target is T2, PP2Ac (Mus musculus, UniProt P63330).
T2 construct: endogenous in cells; host or cells: TS1αβ murine T cell line, IL-2-stimulated, NP-40 lysate
T2 sequence (P63330 whole entry): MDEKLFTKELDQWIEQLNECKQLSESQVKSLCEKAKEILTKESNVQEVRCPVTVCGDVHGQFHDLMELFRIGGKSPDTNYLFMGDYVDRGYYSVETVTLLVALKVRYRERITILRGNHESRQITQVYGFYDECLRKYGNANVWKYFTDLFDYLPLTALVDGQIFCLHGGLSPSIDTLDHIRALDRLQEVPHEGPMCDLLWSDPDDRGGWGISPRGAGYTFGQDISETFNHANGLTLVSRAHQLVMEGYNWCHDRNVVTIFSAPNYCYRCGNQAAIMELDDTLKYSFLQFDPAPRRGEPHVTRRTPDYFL
Briefly: Pull down assay of biotinylated peptides with cell lysate, Western blot with PP2Ac antibody. As to conditions: cellular extracts from IL-2-stimulated cells. In kind it is binding, murine. As to the method: Biotinylated peptides were preincubated 2 h at 0-100 μM (in final concentration with lysate) at room temperature with 30 μl of streptavidin-coated immunomagnetic beads (Calbiochem, San Diego Calif.). During this time, […] exponentially growing TS1αβ cells were first washed twice with PBS and then lysed 10 minutes on ice in 400 μl of lysis buffer (50 mM Tris pH7.4, 150 mM NaCl, 20% glycerol, 1% NP-40, 10 mM EDTA, 1 mM PhenylMethylSulfonyl Fluoride, 10 mM NaF, 1 mM orthovanadate, “complete, EDTA-free” protease inhibitor cocktail from Roche).
Lysates were clarified at 13000 g for 10 minutes at 4° C. and were incubated with biotinylated peptides associated with the streptavidin-coated immunomagnetic beads 2 h at 4° C. Biotinylated peptides were pulled down with streptavidin beads and washed two times in 700 μl of lysis buffer on ice. Bound proteins and unbound lysates were then analyzed by SDS-PAGE and Western Blotting using PP1c or PP2Ac antibodies.
To determine the capacity of DPT-C9 to interact with PP2Ac, the inventors performed pull-down experiments using cellular extracts from IL-2-stimulated cells incubated with biotinylated peptides or beads alone.
In general terms: Immunoblotting shows a protein as a band on a membrane.

The test system of data set [4] is TS1αβ cells. Description: Cell death assay (annexin V / PI flow cytometry). As to conditions: peptides at 150 μM. It is filed as cell-based, murine. As to the method: An Annexin-V-FITC conjugated kit (Roche) was used for the assessment of outer leaflet exposure of phosphatidylserine (PS) in the plasma membrane of apoptotic cells. Staining was performed according to the manufacturer's instructions. A total of […] cells were analyzed by flow cytometry in a FACSCalibur cytofluometer (BD Biosciences). Necrotic cells were excluded by propidium iodide (PI) staining, and single annexin V positive cells were considered apoptotic. For apoptotic analysis the different peptides were used at 150 μM.
Using flow cytometry detection of annexin V and PI, the inventors analyzed the capacity of DPT-C9 to induce apoptosis in TS1αβ cells cultured in presence of IL-2. In contrast to non penetrating C9 peptide, DPT-C9 induced a 6-fold increase of apoptosis.

Data set [5] concerns the target T3, caspase-9 from lysate of murine TS1αβ cells (mouse, UniProt Q8C3Q9 1-454, limits assumed).
T3 construct: Endogenous protein in the lysate; also called murine caspase-9; mouse caspase-9
T3 sequence (looked up): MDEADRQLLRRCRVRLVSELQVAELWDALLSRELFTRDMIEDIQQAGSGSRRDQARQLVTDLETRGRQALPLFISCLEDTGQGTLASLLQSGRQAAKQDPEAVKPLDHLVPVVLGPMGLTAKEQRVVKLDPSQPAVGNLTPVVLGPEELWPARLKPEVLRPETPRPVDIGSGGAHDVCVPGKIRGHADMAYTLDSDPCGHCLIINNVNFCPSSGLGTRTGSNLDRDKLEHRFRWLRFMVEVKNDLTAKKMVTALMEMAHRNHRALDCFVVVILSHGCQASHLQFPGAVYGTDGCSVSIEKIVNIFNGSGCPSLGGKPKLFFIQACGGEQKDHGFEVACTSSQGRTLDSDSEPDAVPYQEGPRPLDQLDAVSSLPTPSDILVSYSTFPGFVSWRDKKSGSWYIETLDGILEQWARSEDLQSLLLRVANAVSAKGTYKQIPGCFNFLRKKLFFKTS
Briefly: pull-down from IL-2-stimulated TS1αβ cell lysate with biotinylated peptide on streptavidin beads, Western blot.

The target in data set [6] is T4, PP2Ac (catalytic subunit of PP2A) from lysate of IL-2-stimulated murine TS1αβ cells (mouse, UniProt P63330 1-309).
T4 construct: Endogenous protein from cell lysate, detected by Western blot with a PP2Ac antibody; It may have been part of a PP2A holoenzyme in the lysate
T4 sequence (P63330 whole entry): as the sequence (P63330 whole entry) above
The data set is described as above.

Residues, ends and D or L forms follow the SMILES beside them. No end group written: not given here.

Turning to `CC[C@H](C)[C@H](NC(=O)CNC(=O)[C@H](CC(=O)O)NC(=O)[C@H](CC(C)C)NC(=O)[C@@H](NC(=O)[C@H](CCC(=O)O)NC(=O)[C@@H](NC(=O)[C@@H](N)Cc1ccc(O)cc1)[C@@H](C)CC)[C@@H](C)O)C(=O)N[C@@H](CC(C)C)C(=O)N[C@@H](CCC(=O)O)C(=O)N[C@@H](CCC(N)=O)C(=O)N[C@@H](Cc1c[nH]c2ccccc12)C(=O)N[C@@H](C)C(=O)N[C@@H](CCCNC(=N)N)C(=O)N[C@@H](CO)C(=O)N[C@@H](CCC(=O)O)C(=O)N[C@@H](CC(=O)O)C(=O)N[C@@H](CC(C)C)C(=O)O` [C9, YIETLDGILEQWARSEDL] (H-YIETLDGILEQWARSEDL-OH; N-terminus and C-terminus assumed), in data set [1], the Cell penetration result is “No” and the internalized result was “is not internalized”.

Regarding `N=C(N)NCCC[C@H](NC(=O)[C@H](CCCNC(=N)N)NC(=O)[C@H](CCCNC(=N)N)NC(=O)[C@H](CCC(N)=O)NC(=O)[C@H](CCCNC(=N)N)NC(=O)[C@H](CCCNC(=N)N)NC(=O)[C@H](CCCCN)NC(=O)[C@H](CCCCN)NC(=O)[C@H](CCCNC(=N)N)NC(=O)CNC(=O)[C@@H](N)Cc1ccc(O)cc1)C(=O)O` [Tat, YGRKKRRQRRR], in data set [1], the internalized entry is “are internalized”.

For the molecule “LDHIRALDRLQE (Synthetic PP2A peptide) [dodecapeptide from human PP2Ac]”, in data set [2], the “binding to purified caspase-9” value is listed as “bind to purified caspase-9”.

Regarding “RALDRLQEVPHE (Synthetic PP2A peptide) [dodecapeptide from human PP2Ac]”, the “binding to purified caspase-9” value in data set [2] is “bind to purified caspase-9”.

In the case of “HIRALDRLQEVP (Synthetic PP2A peptide) [dodecapeptide from human PP2Ac]”, in data set [2], the “binding to purified caspase-9” value is given as “bind to purified caspase-9”.

As to “LDRLQEVPHEGP (Synthetic PP2A peptide) [dodecapeptide from human PP2Ac]”, the “binding to purified caspase-9” value in data set [2] is “bind to purified caspase-9”.

`CC[C@H](C)[C@H](NC(=O)[C@H](CC(C)C)NC(=O)[C@H](CCC(=O)O)NC(=O)[C@H](CCC(N)=O)NC(=O)[C@H](Cc1c[nH]c2ccccc12)NC(=O)[C@H](C)NC(=O)[C@H](CCCNC(=N)N)NC(=O)[C@H](CO)NC(=O)[C@H](CCC(=O)O)NC(=O)[C@H](CC(=O)O)NC(=O)[C@H](CC(C)C)NC(=O)[C@@H](NC(=O)[C@H](CCCCN)NC(=O)[C@@H](NC(=O)[C@H](CCC(=O)O)NC(=O)[C@H](CCCNC(=N)N)NC(=O)[C@H](CCCCN)NC(=O)[C@@H](NC(=O)[C@H](CCCCN)NC(=O)[C@H](CCCCN)NC(=O)[C@H](CCCCN)NC(=O)[C@H](CCCCN)NC(=O)[C@@H](N)C(C)C)[C@@H](C)CC)[C@@H](C)CC)[C@@H](C)CC)C(=O)NCC(=O)N[C@@H](CC(=O)O)C(=O)N[C@@H](CC(C)C)C(=O)N[C@H](C(=O)N[C@@H](CCC(=O)O)C(=O)N[C@H](C(=O)N[C@@H](Cc1ccc(O)cc1)C(=O)O)[C@@H](C)CC)[C@@H](C)O` [DPT-C9r, VKKKKIKREIKI-LDESRAWQELIGDLTEIY] (H-VKKKKIKREIKILDESRAWQELIGDLTEIY-OH; N-terminus and C-terminus assumed): in data set [1], the Cell penetration result is “Yes” and the internalized result is “are internalized”.

Take VKKKKIKREIKI [DPT-sh1]: in data set [1], the Cell penetration result is given as “Yes” and the internalized result is reported as “are internalized”. In addition, the “interact with PP2Ac” value in data set [3] is listed as “do not interact with PP2Ac”. Also, the “induction of apoptosis / cell death (in words)” value in data set [4] is reported as “behaves as negative control”.

On to “DTLDHIRALDRL (Synthetic PP2A peptide) [dodecapeptide from human PP2Ac]”, for which the “binding to purified caspase-9” value in data set [2] is recorded as “bind to purified caspase-9”.

Regarding `CC[C@H](C)[C@H](NC(=O)CNC(=O)[C@H](CC(=O)O)NC(=O)[C@H](CC(C)C)NC(=O)[C@@H](NC(=O)[C@H](CCC(=O)O)NC(=O)[C@@H](NC(=O)[C@H](Cc1ccc(O)cc1)NC(=O)[C@@H](NC(=O)[C@H](CCCCN)NC(=O)[C@@H](NC(=O)[C@H](CCC(=O)O)NC(=O)[C@H](CCCNC(=N)N)NC(=O)[C@H](CCCCN)NC(=O)[C@@H](NC(=O)[C@H](CCCCN)NC(=O)[C@H](CCCCN)NC(=O)[C@H](CCCCN)NC(=O)[C@H](CCCCN)NC(=O)[C@@H](N)C(C)C)[C@@H](C)CC)[C@@H](C)CC)[C@@H](C)CC)[C@@H](C)CC)[C@@H](C)O)C(=O)N[C@@H](CC(C)C)C(=O)N[C@@H](CCC(=O)O)C(=O)N[C@@H](CCC(N)=O)C(=O)N[C@@H](Cc1c[nH]c2ccccc12)C(=O)N[C@@H](C)C(=O)N[C@@H](CCCNC(=N)N)C(=O)N[C@@H](CO)C(=O)N[C@@H](CCC(=O)O)C(=O)N[C@@H](CC(=O)O)C(=O)N[C@@H](CC(C)C)C(=O)O` [DPT-C9, VKKKKIKREIKI-YIETLDGILEQWARSEDL] (H-VKKKKIKREIKIYIETLDGILEQWARSEDL-OH; N-terminus and C-terminus assumed), in data set [1], the Cell penetration result is “Yes” and the internalized result is “are internalized”.

B1: C9 peptide (mouse caspase-9 aa 401-418, PP2Ac binding domain) (peptide)
peptide: YIETLDGILEQWARSEDL
modifications: also: biotinylated, position not given here
notes: Synthetic, non cell-penetrating peptide; Used biotinylated on streptavidin beads in the pull-down; also called C9m
Regarding B1, the binding result in data set [5] is listed as “no binding (tested: 0-100 µM peptide)”.

Take VKKKKIKREIKIYIETLDGILEQWARSEDL (also: biotinylated, position not given here, Used biotinylated in the pull-down) [DPT-C9 (fusion of DPT-sh1 shuttle and C9 sequence)]: the binding result in data set [5] is reported as “no binding (tested: 0-100 µM peptide)”.

B2: DPT-C9r (fusion of DPT-sh1 and C9 reverse sequence) (peptide)
peptide: VKKKKIKREIKILDESRAWQELIGDLTEIY
modifications: also: biotinylated, position not given here
notes: Negative control peptide; Used biotinylated in the pull-down
As for B2, the binding result in data set [6] was “no binding (tested: 0-100 µM peptide)”.
